Measurements from paper PMC6345808, “Molecular structure and function of myelin protein P0 in membrane stacking” (Scientific Reports, 2019).

Experiments:
[1] = molecular target: the molecule itself; experiment: SEC-MALS; full-length P0 in 0.1% DPC micelles, Superdex 200, 250 mM sodium phosphate pH 8.0, 1 mM EDTA; protein conjugate analysis
[2] = molecular target: the molecule itself; experiment: SEC-MALS; full-length P0 in 0.1% LDAO micelles, Superdex 200, 250 mM sodium phosphate pH 8.0, 1 mM EDTA; protein conjugate analysis

B1: full-length myelin protein zero (P0) from bovine peripheral myelin (natural protein, UniProt P10522 29-248, looked up)
chain: AIVVYTDKEVHGAVGSQVTLYCSFWSSEWVSDDLSFTWRYQPEGGRDAISIFHYAKGQPYIDEVGTFKERIQWVGDPHRKDGSIVIHNLDYGDNGTFTCDVKNPPDIVGKTSQVTLYVFEKVPTRYGVVLGAVIGGVLGVVLLALLLFYLIRYCWLRRQAALQRRLSAMEKGKLHKTAKDASKRGRQTPVLYAMLDHSRSTKAASEKKTKGLGESRKDKK
modifications: N-linked glycan structures belonging to hybrid types
notes: myelin protein zero (P0, MPZ), bovine, native protein from the raft fraction of peripheral myelin; Oligomeric state depended on detergent: tetramer in DPC, dimer in LDAO; also called MPZ; full-length P0
stoichiometry N [1]: 4 | stoichiometry N [2]: 2
